Measured values as given in patent US20030138522A1.

Biological target: wheat extractable xylanolytic enzymes
Assay: cell-based or functional assay

OD (Xylazyme substrate, xylanase activity; 100 µl xylanolytic extract + 100 µl purified inhibitor; control without inhibitor OD 0.8): 0.277 OD | OD (Xylazyme substrate, xylanase activity; 250 µl xylanolytic extract + 100 µl purified inhibitor; control without inhibitor OD 0.867): 0.275 OD | OD (Xylazyme substrate, xylanase activity; 500 µl xylanolytic extract + 100 µl purified inhibitor; control without inhibitor OD 1.031): 0.414 OD
Substance: purified wheat endogenous xylanase inhibitor
